Experimental data taken from paper PMC2876729 (The Biochemical journal, 2010).

B1: Recombinant human transglutaminase-2 (enzyme, UniProt P21980 1-687, looked up)
chain: MAEELVLERCDLELETNGRDHHTADLCREKLVVRRGQPFWLTLHFEGRNYEASVDSLTFSVVTGPAPSQEAGTKARFPLRDAVEEGDWTATVVDQQDCTLSLQLTTPANAPIGLYRLSLEASTGYQGSSFVLGHFILLFNAWCPADAVYLDSEEERQEYVLTQQGFIYQGSAKFIKNIPWNFGQFEDGILDICLILLDVNPKFLKNAGRDCSRRSSPVYVGRVVSGMVNCNDDQGVLLGRWDNNYGDGVSPMSWIGSVDILRRWKNHGCQRVKYGQCWVFAAVACTVLRCLGIPTRVVTNYNSAHDQNSNLLIEYFRNEFGEIQGDKSEMIWNFHCWVESWMTRPDLQPGYEGWQALDPTPQEKSEGTYCCGPVPVRAIKEGDLSTKYDAPFVFAEVNADVVDWIQQDDGSVHKSINRSLIVGLKISTKSVGRDEREDITHTYKYPEGSSEEREAFTRANHLNKLAEKEETGMAMRIRVGQSMNMGSDFDVFAHITNNTAEEYVCRLLLCARTVSYNGILGPECGTKYLLNLNLEPFSEKSVPLCILYEKYRDCLTESNLIKVRALLVEPVINSYLLAERDLYLENPEIKIRILGEPKQKRKLVAEVSLQNPLPVALEGCTFTVEGAGLTEEQKTVEIPDPVEAGEEVKVRMDLLPLHMGLHKLVVNFESDKLKAVKGFRNVIIGPA
B2: Recombinant human endostatin produced in HEK 293-EBNA cells (wild type) (domain or fragment, UniProt P39060 1572-1754, looked up)
chain: HSHRDFQPVLHLVALNSPLSGGMRGIRGADFQCFQQARAVGLAGTFRAFLSSRLQDLYSIVRRADRAAVPIVNLKDELLFPSWEALFSGSEGPLKPGARIFSFDGKDVLRHPTWPQKSVWHGSDPNGRRLTESYCETWRTEAPSATGQASSLLGGRLLGQSAASCHHAYIVLCIENSFMTASK

What was measured:
[1] = target: Recombinant human endostatin produced in HEK 293-EBNA cells (wild type) (human) (UniProt P39060); assay: SPR
[2] = target: Recombinant human endostatin expressed in Pichia pastoris (human) (UniProt P39060); assay: SPR
[3] = target: NC1(XVIII) domain R27A/R139A double mutant (human); assay: ELISA
[4] = target: B2; assay: ELISA
[5] = target: B1; assay: SPR

For “Guinea pig TG-2 extracted from liver (enzyme)”, the Kd [1] was 6.8 nM, the koff [1] was 0.000765 s⁻¹ and the kon [1] was 112000 M⁻¹ s⁻¹. It also gave a percent inhibition of binding by 1 mM GTP [1] of 96.7%, a Kd [2] of 5.59 nM and a koff [2] of 0.000341 s⁻¹.

“Recombinant human transglutaminase-2 (from UniProt P21980 1-687) (enzyme)” showed a percent of the binding of the wild type NC1 domain [3] of 31%.

B1 was tested, and the “fold increase of binding with 8 mM CaCl2 against no cation” value [4] was roughly 38 fold, the “fold increase of binding with 8 mM MgCl2 against no cation” value [4] was roughly 2 fold and the “fold increase of binding with 8 mM MnCl2 against no cation” value [4] was roughly 10 fold.

B2: binds [5].
